Key:
[1] = target: FGFR1c receptor/BKL complex on differentiated mouse 3T3-L1 adipocytes (mouse) (UniProt P16092); experiment: cell-based or functional assay
[2] = target: FGF receptor/BKL complex on HEK293 cells overexpressing human beta-klotho (BKL) (human) (UniProt Q86Z14); experiment: cell-based or functional assay
FGF receptor/BKL complex on HEK293 cells overexpressing human beta-klotho (BKL) (human), sequence (Q86Z14 whole entry, one chain of several): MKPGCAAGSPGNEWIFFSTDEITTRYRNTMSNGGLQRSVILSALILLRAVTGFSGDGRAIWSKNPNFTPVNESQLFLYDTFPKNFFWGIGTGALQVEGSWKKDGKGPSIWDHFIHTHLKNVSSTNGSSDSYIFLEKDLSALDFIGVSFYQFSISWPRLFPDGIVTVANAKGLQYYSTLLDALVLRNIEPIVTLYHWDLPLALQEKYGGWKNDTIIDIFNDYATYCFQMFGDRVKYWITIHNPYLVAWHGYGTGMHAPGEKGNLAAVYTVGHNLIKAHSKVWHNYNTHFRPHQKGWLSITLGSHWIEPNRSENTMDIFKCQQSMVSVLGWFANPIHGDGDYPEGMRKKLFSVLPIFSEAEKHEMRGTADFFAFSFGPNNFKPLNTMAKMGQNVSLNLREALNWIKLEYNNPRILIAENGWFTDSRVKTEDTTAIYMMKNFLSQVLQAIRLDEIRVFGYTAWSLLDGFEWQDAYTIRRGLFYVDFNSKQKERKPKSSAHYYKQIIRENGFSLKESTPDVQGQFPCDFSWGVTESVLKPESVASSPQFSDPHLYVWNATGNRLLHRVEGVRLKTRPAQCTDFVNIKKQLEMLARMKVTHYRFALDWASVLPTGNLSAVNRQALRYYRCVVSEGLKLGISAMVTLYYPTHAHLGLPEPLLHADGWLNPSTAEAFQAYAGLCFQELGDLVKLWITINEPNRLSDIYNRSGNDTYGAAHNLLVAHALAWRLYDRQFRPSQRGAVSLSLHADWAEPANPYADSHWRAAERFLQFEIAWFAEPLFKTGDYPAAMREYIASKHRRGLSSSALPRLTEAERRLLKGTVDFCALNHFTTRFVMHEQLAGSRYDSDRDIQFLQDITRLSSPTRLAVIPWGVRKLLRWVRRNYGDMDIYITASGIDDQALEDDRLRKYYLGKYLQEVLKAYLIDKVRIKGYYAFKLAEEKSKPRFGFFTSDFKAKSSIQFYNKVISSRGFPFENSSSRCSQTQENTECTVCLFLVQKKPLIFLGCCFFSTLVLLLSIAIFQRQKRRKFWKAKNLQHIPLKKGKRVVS

FGFR1c receptor/BKL complex on differentiated mouse 3T3-L1 adipocytes (mouse), sequence (P16092 22-822, chain 1 of 2): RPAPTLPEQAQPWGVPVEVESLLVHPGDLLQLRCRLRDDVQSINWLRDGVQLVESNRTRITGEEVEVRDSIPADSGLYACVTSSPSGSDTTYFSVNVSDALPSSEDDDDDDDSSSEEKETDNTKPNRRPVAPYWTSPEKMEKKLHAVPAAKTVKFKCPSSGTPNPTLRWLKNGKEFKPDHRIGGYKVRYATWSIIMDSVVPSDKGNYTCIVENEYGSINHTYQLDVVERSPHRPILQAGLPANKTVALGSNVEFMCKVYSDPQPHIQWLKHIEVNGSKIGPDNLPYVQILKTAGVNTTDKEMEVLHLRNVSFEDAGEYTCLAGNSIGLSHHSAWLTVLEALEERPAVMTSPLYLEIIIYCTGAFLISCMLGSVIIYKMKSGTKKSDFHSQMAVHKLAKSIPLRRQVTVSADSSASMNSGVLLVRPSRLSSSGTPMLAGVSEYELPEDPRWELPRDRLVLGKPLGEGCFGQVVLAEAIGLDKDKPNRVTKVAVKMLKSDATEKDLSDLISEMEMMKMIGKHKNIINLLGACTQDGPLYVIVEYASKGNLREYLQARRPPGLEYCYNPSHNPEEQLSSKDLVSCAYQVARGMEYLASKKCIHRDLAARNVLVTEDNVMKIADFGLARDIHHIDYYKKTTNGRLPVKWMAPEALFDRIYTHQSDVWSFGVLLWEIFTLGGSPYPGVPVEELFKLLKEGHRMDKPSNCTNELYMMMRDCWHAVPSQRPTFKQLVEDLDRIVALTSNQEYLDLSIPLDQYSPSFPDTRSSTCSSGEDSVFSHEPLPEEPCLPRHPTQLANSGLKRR
FGFR1c receptor/BKL complex on differentiated mouse 3T3-L1 adipocytes (mouse), sequence (Q99N32 whole entry, chain 2 of 2, further chain): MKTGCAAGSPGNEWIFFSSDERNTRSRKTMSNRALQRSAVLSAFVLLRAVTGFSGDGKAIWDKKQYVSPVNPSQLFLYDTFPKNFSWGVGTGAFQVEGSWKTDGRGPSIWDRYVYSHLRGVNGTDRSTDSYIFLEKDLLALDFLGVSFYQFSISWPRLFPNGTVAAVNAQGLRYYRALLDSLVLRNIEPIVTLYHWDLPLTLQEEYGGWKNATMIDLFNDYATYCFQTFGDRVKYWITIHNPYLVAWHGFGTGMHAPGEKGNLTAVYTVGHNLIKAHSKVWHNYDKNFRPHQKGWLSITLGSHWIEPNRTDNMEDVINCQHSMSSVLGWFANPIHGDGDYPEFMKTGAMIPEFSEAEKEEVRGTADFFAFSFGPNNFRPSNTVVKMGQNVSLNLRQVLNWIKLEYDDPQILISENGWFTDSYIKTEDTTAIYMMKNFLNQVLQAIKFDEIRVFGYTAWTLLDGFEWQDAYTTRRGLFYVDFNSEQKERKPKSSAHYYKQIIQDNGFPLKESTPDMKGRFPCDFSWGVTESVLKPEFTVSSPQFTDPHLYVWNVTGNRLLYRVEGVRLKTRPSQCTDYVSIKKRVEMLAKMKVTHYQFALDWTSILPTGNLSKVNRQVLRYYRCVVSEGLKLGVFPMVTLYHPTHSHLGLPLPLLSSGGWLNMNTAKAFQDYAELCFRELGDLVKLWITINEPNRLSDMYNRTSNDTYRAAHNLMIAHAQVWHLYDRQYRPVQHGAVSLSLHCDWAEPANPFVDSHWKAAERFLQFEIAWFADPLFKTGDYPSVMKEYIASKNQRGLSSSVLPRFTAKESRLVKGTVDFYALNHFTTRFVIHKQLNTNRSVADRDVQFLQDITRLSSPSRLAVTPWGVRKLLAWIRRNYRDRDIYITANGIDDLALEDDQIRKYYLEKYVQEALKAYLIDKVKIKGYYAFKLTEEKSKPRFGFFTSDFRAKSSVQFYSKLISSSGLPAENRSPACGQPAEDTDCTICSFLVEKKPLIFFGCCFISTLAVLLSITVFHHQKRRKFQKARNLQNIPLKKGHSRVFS

{Beta-178}-[2-[2-[[2-[2-[2-[[2-[2-[2-[[(4S)-4-carboxy-4-(15-carboxypentadecanoyl-amino)butanoyl]amino]ethoxy]ethoxy]acetyl]amino]ethoxy]ethoxy]acetyl]amino]-ethylamino]-2-oxoethyl]-Ala[Gln121,Leu168,Cys178]FGF21 (from UniProt Q9NSA1 29-209) (ligand)
Glucose uptake EC50 (nM), 3T3-L1 adipocytes [1]: 186 nM
Glucose uptake Emax (%), 3T3-L1 adipocytes [1]: 59%
EC50 (0.1% HSA) (nM), pERK, HEK293/BKL cells [2]: 137 nM
EC50 (nM), pERK, HEK293/BKL cells [2]: 167 nM

— patent publication US20180140673A1
